# Reference: patent publication US9493781B2, “Synthetic brassica-derived chloroplast transit peptides” (DOW AGROSCIENCES LLC, priority 2012, dated 2016)
# Key:
# Zea mays = test: Post-emergence glyphosate tolerance of dgt-28 transformed T0 corn; format: in vivo
# Protocol: Herbicide Tolerance in dgt-28 Transformed Corn. Zea mays dgt-28 transformation events (T0) were allowed to acclimate in the greenhouse and were grown until plants had transitioned from tissue culture to greenhouse growing conditions (i.e., 2-4 new, normal looking leaves had emerged from the whorl). Plants were grown at 27° C. under 16 hour light: 8 hour dark conditions in the greenhouse. The plants were then treated with commercial formulations of DURANGO DMA™ (containing the herbicide glyphosate) with the addition of 2% w/v ammonium-sulfate. Herbicide applications were made with a track sprayer at a spray volume of 187 L/ha, 50-cm spray height. T0 plants were sprayed with a range of glyphosate from 280-4480 g ae/ha glyphosate, which is capable of significant injury to untransformed corn lines. A lethal dose is defined as the rate that causes >95% injury to the B104 inbred.
# Post-Emergence Herbicide Tolerance in dgt-28 Transformed T0 Corn. T0 events of dgt-28 linked with TraP4, TraP5, TraP8 and TraP23 were generated by Agrobacterium transformation and were allowed to acclimate under controlled growth chamber conditions until 2-4 new, normal looking leaves had emerged from the whorl. Plants were assigned individual identification numbers and sampled for copy number analyses of both dgt-28 and aad-1. Based on copy number analyses, plants were selected for protein expression analyses. […]
# YFP protein = test: Western blot of infiltrated tobacco leaves (YFP expression, transit peptide processing); set-up: species or system Nicotiana benthamiana; settings: infiltrated tobacco leaf tissue
# Protocol: Samples of the infiltrated tobacco plants were assayed via Western blotting. Leaf punches were collected and subjected to bead-milling. About 100-200 mg of leaf material was mixed with 2 BBs (steel balls) (Daisy; Rogers, Ark.) and […] of PBST for 3 minutes in a Kleco™ bead mill. The samples were then spun down in a centrifuge at 14,000×g at 4° C. The supernatant was removed and either analyzed directly via Western blot or immunoprecipitated. The immunoprecipitations were performed using the Pierce Direct IP Kit™ (Thermo Scientific; Rockford, Ill.) following the manufacturer's protocol. Approximately, 50 μg of anti-YFP was bound to the resin. The samples were incubated with the resin overnight at 4° C. Next, the samples were washed and eluted the following morning and prepped for analysis by combining equal volumes of 2×8M Urea sample buffer and then boiling the samples for 5 minutes. The boiled samples were run on a 4-12% SDS-Bis Tris gel in MOPS buffer for 40 minutes. The gel was then blotted using the Invitrogen iBlot™ (Life Technologies; Carlsbad, Calif.) following the manufacturer's protocol. The blotted membrane was blocked for 10 minutes using 5% non-fat dry milk in PBS-Tween solution. The membrane was probed with the primary antibody (monoclonal anti-GFP in rabbit) used at a 1:1000 dilution in the 5% non-fat dry milk in PBS-Tween solution for 1 hour. […]
# [1] = system: chloroplasts of tobacco cells; test: Tobacco transient assay: confocal microscopy of TraP-YFP localization; format: cell-based, Nicotiana benthamiana; settings: Agrobacterium-infiltrated tobacco leaves
# From the text: The Trap8 and TraP9 chimeric chloroplast transit peptide sequences were initially tested via a transient in planta assay. Polynucleotide sequences which encode the Trap8 (SEQ ID NO:5) and TraP9 (SEQ ID NO:6) chimeric chloroplast transit peptide sequences were synthesized. A linker sequence (SEQ ID NO:7) was incorporated between the TraP sequence and the yfp coding sequence. The resulting constructs contained two plant transcription units (PTU). The first PTU was comprised of the Arabidopsis thaliana Ubiquitin 10 promoter (AtUbi10 promoter; Callis, et al., (1990) J. Biol. Chem., 265: 12486-12493), TraP-yellow fluorescent protein fusion gene (TraP-YFP; US Patent App. 2007/0298412), and Agrobacterium tumefaciens ORF 23 3′ untranslated region (AtuORF23 3′UTR; U.S. Pat. No. 5,428,147). […]
# Agrobacterium-infiltrated tobacco leaves were severed from the plant, and placed into a petri-dish with water to prevent dehydration. The infiltrated tobacco leaves were observed under blue light excitation with long-pass filter glasses held in place using a Dark Reader Hand Lamp™ (Clare Chemical Research Co.; Dolores, Colo.) to identify undamaged areas of the leaf that were successfully expressing the YFP reporter proteins. […]
# [2] = system: tobacco (cv. Petit Havana); test: Postemergence glyphosate tolerance of dgt-28 transformed T1 and T2 tobacco; format: in vivo; settings: 14 DAT, 2240 g ae/ha glyphosate (DURANGO DMA)
# From the text: Postemergence herbicide tolerance in dgt-28 transformed T1 tobacco. T1 resistant plants from each event used in the progeny testing were given unique identifiers and sampled for zygosity analyses of the dgt-28 gene. Zygosity data were used to assign 2 hemizygous and 2 homozygous replicates to each rate of glyphosate applied allowing for a total of 4 replicates per treatment. These plants were compared against wildtype Petite havana tobacco. All plants were sprayed with a track sprayer set at 187 L/ha. The plants were sprayed from a range of 560-4480 g ae/ha DURANGO DMA™. All applications were formulated in water with the addition of 2% w/v ammonium sulfate (AMS). Plants were evaluated at 7 and 14 days after treatment. Plants were assigned an injury rating with respect to overall visual stunting, chlorosis, and necrosis. The T1 generation is segregating, so some variable response is expected due to difference in zygosity.
# Rates of DURANGO DMA™ ranging from 420-3360 g ae/ha glyphosate were applied to 2-3 leaf tobacco as previously described.
molecule,measurement,setting,value
O=C(O)CNCP(=O)(O)O [glyphosate],Glyphosate rate that controlled non-transformed plants,Zea mays,≥ 280 g ae/ha
"TraP9: chimeric chloroplast transit peptide SEQ ID NO:4; N-terminus from Brassica rapa EPSPS CTP, C-terminus from Brassica napus (protein, TraP9 chimeric chloroplast transit peptide, N-terminus from Brassica rapa EPSPS CTP, C-terminus from Brassica napus) MAQASRICQNPCVISNLPKSNHRKSPFSVSLKTHQPRASSWGLKKSGTMLNGSVIRPVKVTASVS",Processing (cleavage) of transit peptide from YFP by Western blot,YFP protein,processed
same,Localization of YFP fluorescence in tobacco leaf cells,[1],accumulated within the chloroplasts
"TraP23: chloroplast transit peptide TraP23 v2, SEQ ID NO:39 (protein, Chloroplast Transit Peptide) MAQINKSANGVRNASLISNFSNTRQAKSPFSLSCGTRLKNSSRGLKKVAVRLIGSRVKVSAS",% Injury Ave,[2],9.5%
